This assay deals with HLA-A*02:01 (Homo sapiens, UniProt P04439, D140Y/D185E/D98H/E176V/E277Q/G131W/G231S/I119V/I121R/I166T/I218V/L300P/L318F/N151K/N90K/P208A/P217A/Q86G/Q94H/R138H/R169H/T345S). Description: MHC binding assay (UV-ligand exchange, β2m ELISA). As to conditions: MHC class I binding score; binding to HLA-A*02:01 ranged by peptide exchange yield (UV-ligand exchange, β2m ELISA). From the text: Candidate peptides for T cell based therapies according to the present invention were further tested for their MHC binding capacity (affinity). The individual peptide-MHC complexes were produced by UV-ligand exchange, where a UV-sensitive peptide is cleaved upon UV-irradiation, and exchanged with the peptide of interest as analyzed. Only peptide candidates that can effectively bind and stabilize the peptide-receptive MHC molecules prevent dissociation of the MHC complexes. To determine the yield of the exchange reaction, an ELISA was performed based on the detection of the light chain (β2m) of stabilized MHC complexes. The assay was performed as generally described in Rodenko et al. (Rodenko et al., 2006).
96 well MAXISorp plates (NUNC) were coated over night with 2 ug/ml streptavidin in PBS at room temperature, washed 4× and blocked for 1 h at 37° C. in 2% BSA containing blocking buffer. Refolded HLA-A*02:01/MLA-001 monomers served as standards, covering the range of 15-500 ng/ml. Peptide-MHC monomers of the UV-exchange reaction were diluted 100 fold in blocking buffer. Samples were incubated for 1 h at 37° C., washed four times, incubated with 2 ug/ml HRP conjugated anti-β2m for 1 h at 37° C., washed again and detected with TMB solution that is stopped with […]. Absorption was measured at 450 nm. Candidate peptides that show a high exchange yield (preferably higher than 50%, most preferred higher than 75%) are generally preferred for a generation and production of antibodies or fragments thereof, and/or T cell receptors or fragments thereof, as they show sufficient avidity to the MHC molecules and prevent dissociation of the MHC complexes.
Regarding “1 (FLDVKELML; listed as Homo sapiens) [compound 1]”, the Peptide exchange entry is given as “++++ (>75% = ++++)”.
“2 (VLLGENVEL; listed as Homo sapiens) [compound 2]”: the Peptide exchange entry was “+++ (>50 = +++)”.
As for “5 (ILDEGHILQL; listed as Homo sapiens) [compound 5]”, the entry is “++++ (>75% = ++++)”.
On to “6 (SIPDTIASV; listed as Homo sapiens) [compound 6]”, for which the Peptide exchange result is “+++ (>50 = +++)”.
As for “7 (NLQEKVPEL; listed as Homo sapiens) [compound 7]”, the entry is “+++ (>50 = +++)”; as for “19 (VLAVLGAVVAV; listed as Homo sapiens) [compound 19]”, “+++ (>50 = +++)”; as for “22 (KLLELQELVL; listed as Homo sapiens) [compound 22]”, “++++ (>75% = ++++)”.
As for “23 (FLGDPPPGL; listed as Homo sapiens) [compound 23]”, the entry is “+++ (>50 = +++)”.
For the substance “24 (SLVAILHLL; listed as Homo sapiens) [compound 24]”, the Peptide exchange entry is reported as “+++ (>50 = +++)”.
For the substance “25 (FIDPEQIQV; listed as Homo sapiens) [compound 25]”, the Peptide exchange result is recorded as “+++ (>50 = +++)”.
For the substance “26 (KIEDLIKYL; listed as Homo sapiens) [compound 26]”, the Peptide exchange entry is “+++ (>50 = +++)”.
As for “27 (TLWYVPLSL; listed as Homo sapiens) [compound 27]”, the entry is “++++ (>75% = ++++)”; as for “28 (IVDNTTMQL; listed as Homo sapiens) [compound 28]”, “+++ (>50 = +++)”; as for “29 (ILDDVAMVL; listed as Homo sapiens) [compound 29]”, “+++ (>50 = +++)”.
The entry for “30 (VLFPMDLAL; listed as Homo sapiens) [compound 30]” is “+++ (>50 = +++)”; for “32 (GLDIITNKV; listed as Homo sapiens) [compound 32]” it is “+++ (>50 = +++)”.
The entry for “35 (ALFAAGANV; listed as Homo sapiens) [compound 35]” is “+++ (>50 = +++)”; for “36 (SVNGFISTL; listed as Homo sapiens) [compound 36]” it is “++ (>20% = ++)”.
For the substance “37 (TLKEYLESL; listed as Homo sapiens) [compound 37]”, the Peptide exchange entry was “+++ (>50 = +++)”.
Turning to “38 (KLGFGTGVNVYL; listed as Homo sapiens) [compound 38]”, the Peptide exchange result was “++++ (>75% = ++++)”.
With “39 (ALPPPPASI; listed as Homo sapiens) [compound 39]”, the Peptide exchange result is “+++ (>50 = +++)”.
On to “40 (LLSNTVSTL; listed as Homo sapiens) [compound 40]”, for which the Peptide exchange entry was “+++ (>50 = +++)”.
Take “41 (LLDDPTNAHFI; listed as Homo sapiens) [compound 41]”: the Peptide exchange result is listed as “+++ (>50 = +++)”.
For “42 (VLKADVVLL; listed as Homo sapiens) [compound 42]”, the Peptide exchange result was “++ (>20% = ++)”.
As for “43 (LLPDPLYSL; listed as Homo sapiens) [compound 43]”, the entry is “++ (>20% = ++)”; as for “44 (FLYTYIAKV; listed as Homo sapiens) [compound 44]”, “+++ (>50 = +++)”; as for “45 (FVYGEPREL; listed as Homo sapiens) [compound 45]”, “+++ (>50 = +++)”.
For the substance “46 (VMSSTLYTV; listed as Homo sapiens) [compound 46]”, the Peptide exchange result is recorded as “++++ (>75% = ++++)”.
For “47 (ALDSDPVGL; listed as Homo sapiens) [compound 47]”, the Peptide exchange result is “+++ (>50 = +++)”.
Consider “48 (HLIGWTAFL; listed as Homo sapiens) [compound 48]”, for which the Peptide exchange entry is listed as “++++ (>75% = ++++)”.
The entry for “49 (ALLSQDFEL; listed as Homo sapiens) [compound 49]” is “++++ (>75% = ++++)”.
As for “50 (HLDQIFQNL; listed as Homo sapiens) [compound 50]”, the entry is “++ (>20% = ++)”; as for “51 (LIDKIIEYL; listed as Homo sapiens) [compound 51]”, “++ (>20% = ++)”.
For the substance “52 (NLDYAILKL; listed as Homo sapiens) [compound 52]”, the Peptide exchange result is reported as “+ (>10% = +)”.
The entry for “53 (ILDEEKFNV; listed as Homo sapiens) [compound 53]” is “+++ (>50 = +++)”.
The entry for “54 (LLDSGAFHL; listed as Homo sapiens) [compound 54]” is “+++ (>50 = +++)”; for “55 (NLDKLYHGL; listed as Homo sapiens) [compound 55]” it is “+ (>10% = +)”; for “56 (ILDELVKSL; listed as Homo sapiens) [compound 56]” it is “+++ (>50 = +++)”.
As for “57 (GILSFLPVL; listed as Homo sapiens) [compound 57]”, the entry is “+++ (>50 = +++)”; as for “58 (ILGDWSIQV; listed as Homo sapiens) [compound 58]”, “++++ (>75% = ++++)”; as for “59 (IIDDVMKEL; listed as Homo sapiens) [compound 59]”, “++ (>20% = ++)”.
As to “60 (ILPEAQDYFL; listed as Homo sapiens) [compound 60]”, the Peptide exchange entry is on record as “++++ (>75% = ++++)”.
The entry for “61 (KLSVHVTAL; listed as Homo sapiens) [compound 61]” is “++++ (>75% = ++++)”; for “62 (LLDTTQKYL; listed as Homo sapiens) [compound 62]” it is “++++ (>75% = ++++)”.
As for “63 (SIDDSDPIV; listed as Homo sapiens) [compound 63]”, the entry is “+ (>10% = +)”.
As for “64 (SLGPIMLTKI; listed as Homo sapiens) [compound 64]”, the entry is “++ (>20% = ++)”; as for “65 (TTLGGFAKV; listed as Homo sapiens) [compound 65]”, “++ (>20% = ++)”.
Turning to “66 (VMFEYGMRL; listed as Homo sapiens) [compound 66]”, the Peptide exchange entry is “++++ (>75% = ++++)”.
The entry for “67 (YVDSEGIVRM; listed as Homo sapiens) [compound 67]” is “+ (>10% = +)”; for “68 (FLAEAARSL; listed as Homo sapiens) [compound 68]” it is “++++ (>75% = ++++)”; for “69 (IIDDKPIGL; listed as Homo sapiens) [compound 69]” it is “+++ (>50 = +++)”.
Consider “70 (LIDEAAQML; listed as Homo sapiens) [compound 70]”, for which the Peptide exchange entry is “+++ (>50 = +++)”.
The entry for “71 (SLDEVAVSL; listed as Homo sapiens) [compound 71]” is “++++ (>75% = ++++)”.
The entry for “72 (TLLEVDAIVNA; listed as Homo sapiens) [compound 72]” is “++++ (>75% = ++++)”; for “73 (ELDKIYETL; listed as Homo sapiens) [compound 73]” it is “+ (>10% = +)”.
The entry for “74 (GTIPLIESL; listed as Homo sapiens) [compound 74]” is “+ (>10% = +)”; for “75 (FMYAGQLTL; listed as Homo sapiens) [compound 75]” it is “++++ (>75% = ++++)”; for “76 (QIDSIHLLL; listed as Homo sapiens) [compound 76]” it is “+++ (>50 = +++)”.
With “77 (SIDDVVKKL; listed as Homo sapiens) [compound 77]”, the Peptide exchange result is given as “++ (>20% = ++)”.
The entry for “78 (ALKDLVNLI; listed as Homo sapiens) [compound 78]” is “++++ (>75% = ++++)”; for “79 (AVDNILLKL; listed as Homo sapiens) [compound 79]” it is “+++ (>50 = +++)”.
The entry for “80 (FADELSHLL; listed as Homo sapiens) [compound 80]” is “+++ (>50 = +++)”; for “81 (FLDDGNQML; listed as Homo sapiens) [compound 81]” it is “+++ (>50 = +++)”; for “82 (GIDDLHISL; listed as Homo sapiens) [compound 82]” it is “+++ (>50 = +++)”.
As for “83 (GLDKVITVL; listed as Homo sapiens) [compound 83]”, the entry is “+++ (>50 = +++)”; as for “84 (GLDTILQNL; listed as Homo sapiens) [compound 84]”, “++++ (>75% = ++++)”.
“85 (GLLDVMYQV; listed as Homo sapiens) [compound 85]”: the Peptide exchange result was “++++ (>75% = ++++)”.
